Data: publication PMC5460017, “Regulated membrane remodeling by Mic60 controls formation of mitochondrial crista junctions” (Nature Communications, 2017)
Each block holds one binder with its values, some of them ahead of it. Bridge positions count the residues as written; N and C are the ends. Ends that are not written are not given here.

Assays:
[1] = target: T1, Mic60solΔLBS1 (Chaetomium thermophilum Mic60sol with an internal deletion of LBS1) (Chaetomium thermophilum); experiment: native gel or EMSA; blue native (BN)-PAGE of purified Mic60 constructs; settings: both partners purified
T1 chain: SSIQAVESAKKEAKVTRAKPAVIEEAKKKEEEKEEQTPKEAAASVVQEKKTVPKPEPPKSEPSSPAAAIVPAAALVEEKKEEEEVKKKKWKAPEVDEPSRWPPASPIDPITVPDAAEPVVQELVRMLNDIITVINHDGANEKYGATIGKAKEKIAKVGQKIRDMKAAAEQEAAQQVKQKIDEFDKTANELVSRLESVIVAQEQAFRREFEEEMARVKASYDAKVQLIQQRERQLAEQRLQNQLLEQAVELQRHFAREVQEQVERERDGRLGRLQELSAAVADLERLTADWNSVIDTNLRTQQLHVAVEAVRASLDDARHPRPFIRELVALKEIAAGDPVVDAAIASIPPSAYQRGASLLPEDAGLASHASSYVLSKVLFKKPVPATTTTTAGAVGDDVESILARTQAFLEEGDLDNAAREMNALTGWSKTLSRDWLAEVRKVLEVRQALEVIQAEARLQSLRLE

[2] = target: T2, Mic60sol (Chaetomium thermophilum Mic60, residues 208–691) (Chaetomium thermophilum); experiment: ITC; about 450 μM Mic19 construct in the syringe titrated into about 40 μM Mic60 construct in the cell; 10 °C; 20 mM HEPES/NaOH pH 7.5, 150 mM NaCl; untagged proteins; settings: both partners purified
T2 construct: Mic60 of Chaetomium thermophilum, UniProt G0SHY5, residues 208-691; codon-optimized synthetic cDNA in a modified pET28a; source: E. coli BL21 DE3, purified (Ni-NTA, His6 tag cleaved with PreScission protease, size-exclusion chromatography); not shown: His6, N-terminal, cleaved

stoichiometry N [1]: 2
B1: Mic60solΔLBS1 (Chaetomium thermophilum Mic60sol with an internal deletion of LBS1) (domain or fragment)
chain: T1 chain
modifications: His6 tag removed; outer limits 208-691 printed; LBS1 = 563-582 deduced from the printed truncations ending at 562 (no LBS) and 582 (LBS1 kept); check residues lie in the deleted segment and only …

Kd [2]: 390 nM | stoichiometry N [2]: 0.77 ± 0.01
Binder: RPLPESVEKARSEVVRCLREHDRRPLNCWQEVEAFKEEVRKLEKGWVDK (domain or fragment, disulfide 17-28) [isolated CHCH domain of Mic19 (Chaetomium thermophilum)]
